From patent US20020110800A1, “Use of SHP-1 and SHP-2 to detect compounds involved in neuronal survival” (McGill University, priority 1997, published 2002) come the findings set out here.

The test system of test [1] is SHP-2. Briefly: NGF-stimulated association of SHP-2 with tyrosine-phosphorylated proteins in PC12 cells. The test is classed as cell-based. To be noted: proteins of 50 to 125 kDa. The protocol:
FIG. 3 is a Western blot showing that NGF stimulates the association of SHP-2 with tyrosine-phosphorylated proteins in PC12 cells. Lysates prepared from PC12 cells treated with NGF for the indicated times were immunoprecipitated with anti-SHP-2 and probed with anti-pTyr antibodies.
(§1) Immunoprecipitations and immunoblotting were performed as previously described (Kaplan et al., Science, 252:554-558, 1991). Briefly, after two washes with ice-cold Tris-buffered saline, cells were lysed in 1 ml of 1% Nonidet P-40 (NP-40 lysis buffer (20 mM Tris [pH8.0], 137 mM NaCl, 0.5 mM EDTA, 10% glycerol, 1 mM phenylmethylsulphonyl fluoride, 0.15 U/ml aprotinin, 20 μM leupeptin, 1 mM sodium vanadate) at 4° C. for 20 min. Insoluble material was removed by centrifugation at 4° C. for 10 min at 10,000× g. Immunoprecipitations were performed for 4-6 hr at 4° C. Precipitates were collected with protein A-Sepharose, then washed three times with NP-40 lysis buffer and once with water. The immunoprecipitates were boiled in sample buffer (2% SDS, 100 mM dithiothreitol, 10% glycerol, 0.25% bromophenol blue) for 5 min and electrophoretically fractionated by SDS-PAGE. Protein blots were probed overnight at 4° C. with antibody. […]

The subject of a further test is SHP-1. Briefly: NGF-stimulated tyrosine phosphorylation of SHP-1 (immunoprecipitation with anti-SHP-1, anti-pTyr blot). The test is classed as cell-based. To be noted: PC12 cells; increased at 10 minutes, still elevated at 30 minutes of neurotrophin treatment. The protocol:
FIG. 2 is a Western blot showing that NGF stimulates tyrosine phosphorylation of SHP-1 in PC12 cells. Lysates prepared from cells treated with NGF were immunoprecipitated with anti-SHP-1 and probed with an anti-phosphotyrosine (pTyr) antibody (top panel).
as §1

The subject of test [2] is SHP-2. In words: NGF-stimulated association of SHP-2 with tyrosine-phosphorylated proteins in SCG neurons. Type of test: cell-based, rat. The note with it: NGF-treated SCG cultures. The text has this:
FIG. 4 is a Western blot showing that NGF stimulates an increased association of tyrosine-phosphorylated proteins with SHP-2 in SCG neurons. Lysates prepared from neurotrophin-treated SCGs were immunoprecipitated with anti-SHP-2 antibody and immunoblotted with anti-pTyr. Lanes 1 and 2: NGF-stimulated association of tyrosine-phosphorylated proteins with SHP-2. Lanes 3 and 4: NGF-stimulated increase in tyrosine phosphorylation of SCG proteins.
To determine the mechanism whereby the neutrotrophins stimulate the survival and growth of normal and injured neurons, we have asked whether the phosphoprotein phosphatases SHP-1 and SHP-2 play a role in the differentiation and survival of primary neurons, focusing our studies on cultured rat sympathetic cervical ganglion (SCG) and cortical neurons in order to determine the exact nature of this regulation.
Immunoprecipitations and immunoblotting were performed as previously described (Kaplan et al., Science, 252:554-558, 1991). […]

A further test deals with T1, TrkC (Homo sapiens, UniProt Q16288).
T1 construct: made in house; host or cells: Sf9 insect cells (recombinant baculovirus)
Briefly: In vitro association of SHP with baculovirus-expressed TrkC. The test is classed as binding. The note with it: autophosphorylated TrkC, insect cells. As to the method:
(§2) FIG. 7 is a Western blot showing that SHP-1 associates with baculovirus-expressed TrkA, TrkB and TrkC. TrkA, B and C were activated and autophosphorylated in vitro, incubated with PC12 cell lysates, fractionated by electrophoresis, and probed with anti-SHP-1 (bottom panel), and anti-pan Trk antibodies (upper panel).
(§3) The in vitro association assay using baculovirus-expressed proteins was performed as described (Kaplan et al., supra). Briefly, Sf9 cells (2×10^6) were infected, harvested, and lysed in NP-40 lysis buffer. Trk proteins were immunoprecipitated with anti-Trk (203) antibody, and the immunoprecipitates were washed once with lysis buffer containing 1% deoxycholate and 0.1% SDS (RIPA), and three times with 50 mM Tris (pH 7.4). Trks then were activated (i.e. autophosphorylated) by incubation with 50 mM Tris (pH 7.4), 5 mM Mn Cl2, 1 mM ATP and 200 μM orthovanadate. Trk proteins then were washed twice with NP40 lysis buffer and were resuspended in 1 ml of PC12 cell lysate. The immunoprecipitated, activated Trk complexes were incubated with the cell lysate for 3 hr at 4° C., and then washed three times with NP-40 lysis buffer and once with 10 mM Tris (pH 7.4) before immunoblot analysis.
(§4) To investigate the mechanism whereby SHP inhibits NGF-induced signaling responses, we first asked whether the SHPs bound to Trk. […]

Test [3] concerns the target T2, TrkA (Homo sapiens, UniProt P04629).
T2 construct: expressed in transfected cells; host or cells: Sf9 insect cells infected with recombinant baculoviruses
Briefly: In vitro association of SHP with baculovirus-expressed TrkA. Type of test: binding. The note with it: autophosphorylated TrkA, insect cells. The protocol: as §2
Wild-type and mutant TrkA receptors expressed in Sf9 cells were autophosphorylated, incubated with PC12 lysates and immunoblotted with anti-SHP-2.
as §3, with “analysis. […]” for “analysis.”

Another test concerns the target T3, TrkB (Homo sapiens, UniProt Q16620).
T3 construct: made in house; host or cells: Sf9 insect cells (recombinant baculovirus)
In words: In vitro association of SHP with baculovirus-expressed TrkB. The test is classed as binding. The note with it: autophosphorylated TrkB, insect cells. The protocol:
as §2, §3, §4

Test [4] addresses T2, TrkA. In words: Trk dephosphorylation on coexpression with SHP in Sf9 insect cells. Type of test: cell-based. To be noted: wild-type TrkA coexpressed in insect cells; for dephosphorylation of Trk at the 674/675 sites: phospho-specific anti-Trk antibodies. The source says: (§5) FIG. 11 is a Western blot showing that Y490 and Y785 of TrkA are not required for SHP-1 and SHP-2-mediated dephosphorylation of TrkA in vivo. Lysates of Sf9 insect cells coexpressing SHP-1 or SHP-2 wild-type and mutant TrkAs, as indicated, were immunoprecipitated with anti-Trk and probed with anti-pTyr antibody (upper panel) to determine TrkA phosphorylation levels.
(§6) FIG. 12 is a Western blot showing that Y674/Y675 of TrkA are targets of SHP-1 and SHP-2-mediated dephosphorylation. Lysates of Sf9 insect cells co-expressing SHP-1 or SHP-2 and wild-type TrkA using antibodies that specifically recognize these phosphorylated residues. Blots were probed with anti-pan Trk (C,D), anti-SHP-1 (E,F), or anti-SHP2 (G,H) antibodies.
(§7) Sf9 insect cells (2×10^6) were infected with recombinant baculoviruses at a multiplicity of infection of 1 to 10 and lysed at 48 hr postinfection. Sf9 cells were assayed for the expression of the recombinant proteins by immunoblot analysis, as described above. Recombinant baculoviruses were prepared as previously described (Stephens et al., Neuron, 12:691-705, (1994).
(§8) We hypothesized that the suppressive effects of SHP upon NGF-mediated survival might be due to dephosphorylation of the autophosphorylated Trk receptor. Given that SHP-1 can bind to activated Trk and that SHP-2 is activated by Trk (see Example II), we sought to determine whether the SHPs could dephosphorylate TrkA in vitro and in vivo. Trk, SHP-1, and SHP-2 were expressed in Sf9 cells and isolated by immunoprecipitation with anti-Trk, anti-SHP-1, or anti-SHP-2 antibodies. Immunoprecipitated Trk was autophosphorylated by incubating with 10 mM MnCl2, 20 mM Tris pH 7.4 and 2.0 μCi/ml [γ-^32P]-ATP(3000 Ci/mmol) for 30 minutes at room temperature. Activated, radiolabeled Trk then was incubated with partially purified SHP-1 or SHP-2 for 20 minutes at 30° C. In vitro, both SHP-1 and SHP-2 are able to dephosphorylate Trk to a similar extent (FIG. 10) i.e., approximately 5-fold dephosphorylation. Moreover, coexpression of Trk with SHP-1 or SHP-2 in insect cells results in Trk dephosphorylation. In vivo, both SHP-1 and SHP-2 reduce Trk tyrosine phosphorylation, even when the receptors lack tyrosine 490 (Y490F) and/or tyrosine 785 (Y785F) (FIGS. 11 and 12).
(§9) In order to map the sites of dephosphorylation two approaches were taken. First, we asked whether Trks mutated at tyrosines 490 and 785 could be dephosphorylated by SHP-1 or SHP-2 when coexpressed in insect cells (FIG. 11). SHP-1 extensively dephosphorylates (about 8-fold) all of the Trks, both wild-type and mutated, whereas SHP-2 causes a more modest dephosphorylation (about 2-fold). […] To determine whether the two other major tyrosine phosphorylation sites in Trk, Y674 and 675, are substrates of the SHPs, wild-type TrkA and the SHPs were coexpressed in insect cells, and Trk phosphorylation at Y674, Y675 and Y490 was assessed using phospho-specific anti-Trk antibodies directed at tyrosines 674/675 and 490. SHP-1 completely dephosphorylates Trk (about 10-fold) at the 674/675 sites, while SHP-2 partially dephosphorylates Trk (about 2-fold) at these sites. Tyrosine phosphorylation of the Y490 site also is decreased by SHP-1. […] Since SHP-2 expression stimulates sympathetic neuron death (FIG. 6), we conclude that SHP functions by associating with neurotrophin-activated Trk, dephosphorylating the receptor at sites crucial for maintaining Trk activity, and thereby suppressing neuronal survival.

For test [5], the system named is TrkA. Described as above. Type of test: cell-based. To be noted: coexpressed in insect cells, anti-pTyr blot.
Source text: as §5, §6, §7, §8, §9

In a further test the target is T4, Trk (Homo sapiens, UniProt P04629).
T4 construct: made in house; host or cells: Sf9 insect cells (recombinant baculovirus)
In words: In vitro dephosphorylation of autophosphorylated 32P-labeled Trk by partially purified SHP. Type of test: biochemical. The note with it: 20 minutes at 30° C. As to the method:
FIG. 10 is an autoradiogram showing that SHP-1 and SHP-2 dephosphorylate Trk in vitro. Trk, SHP-1 and SHP-2 were expressed in Sf9 insect cells and isolated by immunoprecipitation with anti-Trk, anti-SHP-1 or anti-SHP-2 antibody. Immunoprecipitated Trk was autophosphorylated with [y-^32P]ATP and then was incubated with partially purified SHP-1 or SHP-2. Trk phosphorylation levels then were analyzed by SDS/PAGE and autoradiography.
as §8, with “Moreover, coexpression of Trk with SHP-1 or SHP-2 in insect cells results in Trk dephosphorylation. In vivo, both SHP-1 and SHP-2 reduce Trk tyrosine phosphorylation, even when the receptors lack tyrosine 490 (Y490F) and/or tyrosine 785 (Y785F) (FIGS. 11 and 12).” left out

T2 sequence (P04629 33-790 isoform P04629-2): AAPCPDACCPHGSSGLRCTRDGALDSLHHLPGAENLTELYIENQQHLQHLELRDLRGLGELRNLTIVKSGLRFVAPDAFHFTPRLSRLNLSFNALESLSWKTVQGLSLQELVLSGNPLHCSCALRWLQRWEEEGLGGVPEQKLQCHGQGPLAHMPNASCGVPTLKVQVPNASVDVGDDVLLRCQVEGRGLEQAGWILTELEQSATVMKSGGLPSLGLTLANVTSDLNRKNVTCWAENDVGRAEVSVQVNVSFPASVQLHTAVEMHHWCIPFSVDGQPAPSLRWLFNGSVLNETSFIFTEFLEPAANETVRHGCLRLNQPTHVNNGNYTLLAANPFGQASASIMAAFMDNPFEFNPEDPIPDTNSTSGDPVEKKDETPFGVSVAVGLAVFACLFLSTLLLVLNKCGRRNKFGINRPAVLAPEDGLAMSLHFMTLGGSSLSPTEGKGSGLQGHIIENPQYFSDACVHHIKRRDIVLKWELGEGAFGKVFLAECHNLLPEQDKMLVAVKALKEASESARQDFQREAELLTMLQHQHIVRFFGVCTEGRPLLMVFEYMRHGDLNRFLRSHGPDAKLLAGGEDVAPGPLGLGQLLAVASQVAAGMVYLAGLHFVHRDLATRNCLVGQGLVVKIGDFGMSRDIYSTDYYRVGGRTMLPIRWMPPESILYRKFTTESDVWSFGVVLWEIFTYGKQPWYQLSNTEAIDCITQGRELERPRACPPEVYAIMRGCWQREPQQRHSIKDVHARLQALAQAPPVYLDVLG
T4 sequence (P04629 33-790 isoform P04629-2 limits assumed): as the sequence (P04629 33-790 isoform P04629-2) above
T1 sequence (Q16288 32-839, species assumed): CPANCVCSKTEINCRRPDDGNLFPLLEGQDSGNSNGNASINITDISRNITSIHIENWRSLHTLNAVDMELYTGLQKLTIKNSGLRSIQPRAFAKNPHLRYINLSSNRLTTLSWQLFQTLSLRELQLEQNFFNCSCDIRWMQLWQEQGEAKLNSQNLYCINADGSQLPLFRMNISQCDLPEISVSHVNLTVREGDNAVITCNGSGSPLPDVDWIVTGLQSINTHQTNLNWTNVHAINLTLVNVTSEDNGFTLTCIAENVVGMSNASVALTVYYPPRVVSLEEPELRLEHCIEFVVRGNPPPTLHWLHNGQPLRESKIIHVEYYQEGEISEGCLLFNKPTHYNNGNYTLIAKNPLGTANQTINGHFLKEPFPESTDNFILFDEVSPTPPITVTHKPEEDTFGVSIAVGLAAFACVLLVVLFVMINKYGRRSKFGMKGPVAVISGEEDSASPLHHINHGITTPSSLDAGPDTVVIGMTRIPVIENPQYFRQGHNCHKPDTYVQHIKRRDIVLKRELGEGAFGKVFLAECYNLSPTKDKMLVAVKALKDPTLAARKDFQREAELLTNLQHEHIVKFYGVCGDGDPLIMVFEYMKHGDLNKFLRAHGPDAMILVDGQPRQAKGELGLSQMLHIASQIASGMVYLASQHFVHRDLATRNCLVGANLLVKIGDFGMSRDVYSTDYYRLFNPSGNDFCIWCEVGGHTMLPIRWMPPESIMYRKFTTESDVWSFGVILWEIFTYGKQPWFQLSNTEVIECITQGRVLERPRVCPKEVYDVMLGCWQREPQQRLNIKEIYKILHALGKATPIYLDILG
T3 sequence (Q16620 32-822, species assumed): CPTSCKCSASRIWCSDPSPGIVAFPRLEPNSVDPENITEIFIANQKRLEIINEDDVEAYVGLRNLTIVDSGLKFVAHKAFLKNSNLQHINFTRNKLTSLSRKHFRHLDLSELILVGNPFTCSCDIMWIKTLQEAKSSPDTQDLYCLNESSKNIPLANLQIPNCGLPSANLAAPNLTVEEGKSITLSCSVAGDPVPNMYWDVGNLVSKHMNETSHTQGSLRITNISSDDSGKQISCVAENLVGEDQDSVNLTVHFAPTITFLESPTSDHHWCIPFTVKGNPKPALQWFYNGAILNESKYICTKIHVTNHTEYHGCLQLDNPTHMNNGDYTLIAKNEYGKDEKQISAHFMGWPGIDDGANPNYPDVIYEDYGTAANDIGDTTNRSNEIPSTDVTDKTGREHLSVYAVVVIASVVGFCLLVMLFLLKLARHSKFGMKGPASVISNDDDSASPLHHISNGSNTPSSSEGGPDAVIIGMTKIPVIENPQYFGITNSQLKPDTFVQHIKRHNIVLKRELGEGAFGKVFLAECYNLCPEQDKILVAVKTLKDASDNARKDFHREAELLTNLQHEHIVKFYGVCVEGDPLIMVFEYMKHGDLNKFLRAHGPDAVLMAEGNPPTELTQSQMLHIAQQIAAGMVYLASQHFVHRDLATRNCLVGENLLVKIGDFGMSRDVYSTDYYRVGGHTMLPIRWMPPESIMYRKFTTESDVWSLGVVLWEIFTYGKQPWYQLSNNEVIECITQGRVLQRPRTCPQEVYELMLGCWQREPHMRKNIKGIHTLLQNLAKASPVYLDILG

As to “NGF: prototypical neurotrophin, Nerve Growth Factor, obtained from Peprotech”, the results for the “association of SHP-2 with tyrosine phosphorylated proteins” value with SHP-2 [1] and in the test with SHP-2 [2] were “stimulates the association of SHP-2 with a number of tyrosine phosphorylated proteins” and “SHP-2 could be seen to associate with at least five tyrosine phosphorylated proteins”, respectively. Further, the “tyrosine phosphorylation of SHP-1” value in the test on SHP-1 is given as “stimulates an increase in the tyrosine phosphorylation of SHP-1”.

On to “SHP-1: nontransmembrane protein-tyrosine phosphatase containing SH2 domains, GenBank Accession Number M77273”, for which the “binding to activated Trk” value with TrkC was “binds to activated (i.e. autophosphorylated) TrkA, TrkB and TrkC”; with TrkA [3], “binds to activated (i.e. autophosphorylated) TrkA, TrkB and TrkC”; with TrkB it was “binds to activated (i.e. autophosphorylated) TrkA, TrkB and TrkC”. For the same substance, the “dephosphorylation of Trk at the 674/675 sites” value with TrkA [4] is recorded as “about 10 fold”. For the same substance, in the test with TrkA [4] (phospho-specific anti-Trk antibody), the “tyrosine phosphorylation of the Y490 site” value is reported as “decreased”. The “dephosphorylation of Trks, wild-type and mutated at tyrosines 490 and 785” value with TrkA [5] is listed as “about 8 fold”. Moreover, in the test with Trk, the “dephosphorylation of Trk in vitro” value is reported as “approximately 5 fold”.

Consider “SHP-2: nontransmembrane protein-tyrosine phosphatase containing SH2 domains, GenBank Accession Number L03535”, for which the “binding to activated Trk” value with TrkA [3] is on record as “unable to bind to Trk”. Further, the “dephosphorylation of Trk at the 674/675 sites” value with TrkA [4] is “about 2 fold”. In the test with TrkA [5], the “dephosphorylation of Trks, wild-type and mutated at tyrosines 490 and 785” value is reported as “about 2 fold”. Further, the “dephosphorylation of Trk in vitro” value with Trk is “approximately 5 fold”.
